The text below walks through data of US20070036750A1.

In assay [1] the target is human CCR2 (full-length, Genbank Accession No. NM-000648) on membranes of Ba/F3-hCCR2 cells (human) (UniProt P41597). Description: competition with 30 pM radioiodinated human MCP1, SPA, Ba/F3-hCCR2 cell membranes.
The target is the same in assay [2]. Kind of assay: competition with radioiodinated human MCP1, SPA, membranes of cells containing CCR2.

Broadly, the IC50 is the point on the concentration scale where inhibition reaches its midpoint. Lower therefore signals greater potency. By Ki is commonly meant the equilibrium dissociation constant of an inhibitor or competing ligand from its target. Regarding “Recombinant human MCP1 (rhMCP1) (R & D Systems) (from UniProt P13500 24-99) (ligand)”, in assay [1], the IC50 worked out at 0.183 nM and the inhibition constant Ki turned out to be 0.0845 nM.
In assay [1], “hMCP1-mIg (NH2-human MCP1-Mouse Ig Heavy chain γ1 (hinge-CH2-CH3)-COOH) (Fc fusion)” registered an IC50 of 0.624 nM and a Ki of 0.287 nM. The same substance returned a fold less potent than unlabeled rhMCP1 in assay [2] of 5 to 12 fold.
